Measurements taken from paper PMC7617739, “Seo1p, a high-affinity, plasma membrane transporter of the γ-Glu-met dipeptide in yeasts and fungi” (The Journal of Biological Chemistry, 2025).

Substrate: CSCC[C@H](NC(=O)CC[C@H](N)C(=O)O)C(=O)O
Test: cells, lysate or membranes

B1: Seo1p (Saccharomyces cerevisiae S288C) (protein)
chain: MYSIVKEIIVDPYKRLKWGFIPVKRQVEDLPDDLNSTEIVTISNSIQSHETAENFITTTSEKDQLHFETSSYSEHKDNVNVTRSYEYRDEADRPWWRFFDEQEYRINEKERSHNKWYSWFKQGTSFKEKKLLIKLDVLLAFYSCIAYWVKYLDTVNINNAYVSGMKEDLGFQGNDLVHTQVMYTVGNIIFQLPFLIYLNKLPLNYVLPSLDLCWSLLTVGAAYVNSVPHLKAIRFFIGAFEAPSYLAYQYLFGSFYKHDEMVRRSAFYYLGQYIGILSAGGIQSAVYSSLNGVNGLEGWRWNFIIDAIVSVVVGLIGFYSLPGDPYNCYSIFLTDDEIRLARKRLKENQTGKSDFETKVFDIKLWKTIFSDWKIYILTLWNIFCWNDSNVSSGAYLLWLKSLKRYSIPKLNQLSMITPGLGMVYLMLTGIIADKLHSRWFAIIFTQVFNIIGNSILAAWDVAEGAKWFAFMLQCFGWAMAPVLYSWQNDICRRDAQTRAITLVTMNIMAQSSTAWISVLVWKTEEAPRYLKGFTFTACSAFCLSIWTFVVLYFYKRDERNNAKKNGIVLYNSKHGVEKPTSKDVETLSVSDEK
  Km: 48 µM
